These results are taken from publication PMC9396414, “An antagonistic monoclonal anti–Plexin-B1 antibody exerts therapeutic effects in mouse models of postmenopausal osteoporosis and multiple sclerosis” (The Journal of Biological Chemistry, 2022).

The target of the assay is T1, human Sema4D (semaphorin 4D) (human, UniProt Q92854 22-734).
T1 construct: Semaphorin 4D (Sema4D, CD100), human, recombinant protein bought from R&D Systems, cat. no; 7470-S4; check against the vendor's data sheet; also called CD100; source: bought: R&D (7470-S4)
T1 sequence (looked up): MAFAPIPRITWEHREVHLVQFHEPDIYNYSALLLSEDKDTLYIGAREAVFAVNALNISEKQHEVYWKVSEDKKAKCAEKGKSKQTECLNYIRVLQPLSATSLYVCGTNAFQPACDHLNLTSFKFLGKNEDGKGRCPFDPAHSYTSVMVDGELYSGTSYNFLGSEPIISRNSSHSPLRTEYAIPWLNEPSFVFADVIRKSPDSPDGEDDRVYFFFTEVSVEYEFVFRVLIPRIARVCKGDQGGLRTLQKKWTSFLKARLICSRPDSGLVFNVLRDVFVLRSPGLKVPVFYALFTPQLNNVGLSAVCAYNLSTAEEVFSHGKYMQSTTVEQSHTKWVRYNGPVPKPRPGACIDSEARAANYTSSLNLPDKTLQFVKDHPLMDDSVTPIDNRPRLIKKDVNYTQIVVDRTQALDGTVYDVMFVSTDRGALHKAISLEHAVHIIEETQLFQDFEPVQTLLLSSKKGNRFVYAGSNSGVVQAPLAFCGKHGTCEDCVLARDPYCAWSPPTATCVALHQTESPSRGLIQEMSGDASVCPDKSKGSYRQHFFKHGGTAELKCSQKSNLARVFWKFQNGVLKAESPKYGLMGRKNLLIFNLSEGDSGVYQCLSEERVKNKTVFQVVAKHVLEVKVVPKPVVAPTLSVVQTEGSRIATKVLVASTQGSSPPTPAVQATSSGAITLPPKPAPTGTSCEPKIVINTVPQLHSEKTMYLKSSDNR
The assay is described as follows: BLI; OctetRED384; 5 μg/ml biotinylated human Plexin-B1 (20–535)-Avi-6xHis captured on an SA biosensor in 1xKinetics buffer; then 50 nM antibody or buffer, then 50 nM human Sema4D; qualitative analysis of association curves. Conditions: both partners purified. (In general: In BLI a coated tip is dipped into the sample, and binding shifts an interference pattern.)

B1: biotinylated human Plexin-B1 (20–535)-Avi-6xHis (domain or fragment, UniProt O43157 20-535, looked up)
chain: LQPLPPTAFTPNGTYLQHLARDPTSGTLYLGATNFLFQLSPGLQLEATVSTGPVLDSRDCLPPVMPDECPQAQPTNNPNQLLLVSPGALVVCGSVHQGVCEQRRLGQLEQLLLRPERPGDTQYVAANDPAVSTVGLVAQGLAGEPLLFVGRGYTSRGVGGGIPPITTRALWPPDPQAAFSYEETAKLAVGRLSEYSHHFVSAFARGASAYFLFLRRDLQAQSRAFRAYVSRVCLRDQHYYSYVELPLACEGGRYGLIQAAAVATSREVAHGEVLFAAFSSAAPPTVGRPPSAAAGASGASALCAFPLDEVDRLANRTRDACYTREGRAEDGTEVAYIEYDVNSDCAQLPVDTLDAYPCGSDHTPSPMASRVPLEATPILEWPGIQLTAVAVTMEDGHTIAFLGDSQGQLHRVYLGPGSDGHPYSTQSIQQGSAVSRDLTFDGTFEHLYVMTQSTLLKVPVASCAQHLDCASCLAHRDPYCGWCVLLGRCSRRSECSRGQGPEQWLWSFQPELGCLQ
modifications: biotin on the Avi-tag (in vitro, BirA enzyme)
notes: Plexin-B1, human, extracellular region residues 20-535; cloned as fragment 1-535 and secreted as 20-535; the Avi-tag stands between the C-terminus of the fragment and the 6xHis tag; The SPR experiments with the antibodies used the form without the Avi-tag, Plexin-B1 (20–535)-6xHis; The cell assays used full-length human Plexin-B1-FLAG (GenScript, pcDNA3.1); also called human recombinant Plexin-B1 …
For the molecule B1, the binding result is given as “binds”.
